# Source: article PMC12215075, “Cryo-EM structures of the E. coli Ton and Tol motor complexes” (Nature Communications, 2025)
# B1: E. coli ExbB (natural protein)
# chain: MGNNLMQTDLSVWGMYQHADIVVKCVMIGLILASVVTWAIFFSKSVEFFNQKRRLKREQQLLAEARSLNQANDIAADFGSKSLSLHLLNEAQNELELSEGSDDNEGIKERTSFRLERRVAAVGRQMGRGNGYLATIGAISPFVGLFGTVWGIMNSFIGIAQTQTTNLAVVAPGIAEALLATAIGLVAAIPAVVIYNVFARQIGGFKAMLGDVAAQVLLLQSRDLDLEASAAAHPVRVAQKLRAG
# notes: ExbB, E. coli; also called EcExbB; ExbBA
# Experiments:
# E. coli ExbB = biological target: B1; assay: cryo-EM structure; TonB-ExbBD complex, co-expressed and co-purified, in amphipol PMAL-C12 (Tris 30 mM pH8.0 NaCl 170 mM EDTA 1 mM); 300 keV; consensus map 2.8 A and two further classes at 3.2 A; conditions: both partners purified
# [1] = biological target: the molecule itself; assay: as above
# [2] = biological target: the molecule itself; assay: cryo-EM structure; TEV-digested TolATEVQR complex, co-expressed and co-purified, in LMNG (Hepes/NaOH 30 mM pH7.5 NaCl 150 mM EDTA 1 mM LMNG 0.002%), second SEC peak; 300 keV; two 3D classes (TolATEVQR-I 2.94 A, TolATEVQR-II 3.18 A)
Binder,stoichiometry N [1],further results
"E. coli TonB with C-terminal TEV site and streptag-II (natural protein, TonB, E. coli; only the transmembrane helix (residues 10 to 32) was built, the periplasmic domain is not visible; also called EcTonB; TonBF) MTLDLPRRFPWPTLLSVCIHGAVVAGLLYTSVHQVIELPAPAQPISVTMVTPADLEPPQAVQPPPEPVVEPEPEPEPIPEPPKEAPVVIEKPKPKPKPKPKPVKKVQEQPKRDVKPVESRPASPFENTAPARLTSSTATAATSKPVTSVASGPRALSRNQPQYPARAQALRIEGQVKVKFDVTPDGRVDNVQILSAKPANMFEREVKNAMRRWRYEPGKPGSGIVVNILFKINGTTEIQ",,stoichiometry N (E. coli ExbB): 1 TonB per five ExbB
B1,5,
"E. coli ExbD with C-terminal TEV site and 10his-tag (natural protein, ExbD, E. coli; model built from Asp11 through the transmembrane helix (21-42), periplasmic domain not visible; No TEV digestion is described in the purification of TonB-ExbBD, so the tag was probably still on the chain; also called EcExbD; ExbDY) MAMHLNENLDDNGEMHDINVTPFIDVMLVLLIIFMVAAPLATVDVKVNLPASTSTPQPRPEKPVYLSVKADNSMFIGNDPVTDETMITALNALTEGKKDTTIFFRADKTVDYETLMKVMDTLHQAGYLKIGLVGEETAKAK",2,
"E. coli TolQ (natural protein, UniProt P0ABU9 1-230, looked up, TolQ, E. coli; residues 2-225 built in the structure; also called EcTolQ; TolQA) MTDMNILDLFLKASLLVKLIMLILIGFSIASWAIIIQRTRILNAAAREAEAFEDKFWSGIELSRLYQESQGKRDNLTGSEQIFYSGFKEFVRLHRANSHAPEAVVEGASRAMRISMNRELENLETHIPFLGTVGSISPYIGLFGTVWGIMHAFIALGAVKQATLQMVAPGIAEALIATAIGLFAAIPAVMAYNRLNQRVNKLELNYDNFMEEFTAILHRQAFTVSESNKG",,stoichiometry N [2]: 5
